Data set [1] has as its system IgE immunoglobulin, P01854-1. As to conditions: n at position 18 is 2-aminopurine replacing C [18 (2-aminopurine replacing C)]; PAGE purified, saturating IgE; affinity stated comparable to unmodified aptamer; screening buffer 20 mM Tris pH 7.1, 140 mM NaCl, 5 mM KCl, 10 mM CaCl2, 10 mM ….
In data set [2] the test system is IgE immunoglobulin, P01854-1. As to conditions: saturating IgE.

Read-outs that look alike come from different tables or passages of the source.

Chain of IgE immunoglobulin, P01854-1 (P01854 other isoform, or with tags, fused parts or gaps): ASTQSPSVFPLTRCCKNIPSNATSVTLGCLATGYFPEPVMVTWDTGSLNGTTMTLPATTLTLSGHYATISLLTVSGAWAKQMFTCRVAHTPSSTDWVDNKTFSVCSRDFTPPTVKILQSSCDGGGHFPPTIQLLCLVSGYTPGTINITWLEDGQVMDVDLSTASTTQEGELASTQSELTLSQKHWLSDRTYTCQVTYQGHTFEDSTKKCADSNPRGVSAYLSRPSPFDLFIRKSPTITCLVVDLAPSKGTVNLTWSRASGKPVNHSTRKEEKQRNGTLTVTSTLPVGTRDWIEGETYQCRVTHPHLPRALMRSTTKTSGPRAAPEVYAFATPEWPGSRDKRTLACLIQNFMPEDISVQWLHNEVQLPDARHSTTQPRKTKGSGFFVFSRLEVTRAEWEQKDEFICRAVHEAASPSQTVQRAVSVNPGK

Take “GGGGCACGTTTATCCGTCCCTCCTAGTGGCGTGCCCC [IgE aptamer 2AP-18]”: the binding signal (fold fluorescence increase) in data set [1] was found to be 5.6.
Sequence “GGGGCACGTTTATCCGTCCCTCCTAGTGGCGTGCCCC [IgE aptamer 3MI-18]” came in with a binding signal (fold fluorescence increase) in data set [2] (n at position 18 is 3-methylisoxanthopterin replacing C [18 (3-methylisoxanthopterin replacing C)]) of 1.5.
In data set [2] (n at position 18 is 6MAP replacing C [18 (6MAP replacing C)]), “GGGGCACGTTTATCCGTCCCTCCTAGTGGCGTGCCCC [IgE aptamer 6MAP-18]” registered a binding signal (fold fluorescence increase) of 1.9.

For the origin of these results see US20090054250.
